Laboratory results: patent US20230212554A1

Legend:
[1] = biological target: NPB1 (influenza B virus B/Houston/B720/2004) (UniProt O36433); experiment: ELISA on recombinant NP
[2] = biological target: NP of B/Brisbane/60/2008(fluB) (influenza B virus B/Brisbane/60/2008); experiment: ELISA on virus-infected fixed MDCK cells

## ab47876 (antibody)
[1]
  EC50: 0.13 nM
[2]
  EC50: 2.06 nM
